Laboratory results as given in patent US20040131612A1 (APPLIED MOLECULAR EVOLUTION, published 2004).
Several values for one entry are separate records, joined by “and”; a condition that tells them apart may be missing. Equal values may be shown once.

How the values were obtained:
human TNF-α [1] = biological target: T1, human TNF-α (human, UniProt P01375 77-233); assay: kinetic exclusion assay (KinExA 3000), 40 pM Fab mixed with 400 pM hTNF-α, time course
T1 construct: It was biotinylated in the filter lift and on-rate ELISA; also called hTNF-α; hTNF
Experimental: To measure kₒₙ, individual Fab fragments at a concentration of 40 pM were mixed with 400 pM of hTNF-α. A series of measurements were taken over a time course. The resulting data was used to calculate the kₒₙ with the instrument software. koff was calculated by using the formula Kd=koff/kₒₙ.

human TNF-α [2] = biological target: T1, human TNF-α; assay: kinetic exclusion assay (KinExA 3000), Fab in solution with human TNF-α; upper end of the range
Experimental: (§1) Next, binding kinetics of three of the Fab fragments described in Table 4 were determined in a kinetic exclusion assay. Affinity measurements were performed on a KinExA™3000 instrument (Sapidyne Instruments, Inc., Boise, Id.) using Fab fragments (A10K, A9K, and A10P) released from the periplasmic space whose concentration was determined by a quantitative ELISA. Briefly, antigen and antibody fragment were allowed to react in solution and the fraction of unbound reagent was determined by capture and measured on a bead support. Binding kinetics can be determined or calculated from the amount of unbound reagent. For instance, after interaction between TNF-α and a Fab fragment has occurred in solution, binding of the unreacted, free Fab fragment to TNF-α coated beads can be measured on the instrument by detection with a labeled secondary antibody to the Fab fragment (e.g., a goat anti-IgG (heavy and light)). […] A total of 13 tubes were used for each Kd determination. For A10K and A10P, the Fab concentration was 10 pM with the human TNF-α concentration beginning at 160 pM and then serially diluted to 0.078 pM with the final tube containing no human TNF-α. […] After the incubation, the amount of unbound Fab in the equilibrated samples was determined on the KinExA™3000 instrument according to the manufacturer's instructions. Kd values were determined by the instrument software.

human TNF-α [3] = biological target: T1, human TNF-α; assay: cell-based or functional assay
human TNF-α [4] = biological target: T1, human TNF-α; assay: kinetic exclusion assay (KinExA 3000), Fab in solution with human TNF-α; lower end of the range
Experimental: as §1

human TNF-α [5] = biological target: T1, human TNF-α; assay: calculated from Kd = koff/kon (KinExA data)
Experimental: Next, binding kinetics of three of the Fab fragments described in Table 4 were determined in a kinetic exclusion assay. Affinity measurements were performed on a KinExA™3000 instrument (Sapidyne Instruments, Inc., Boise, Id.) using Fab fragments (A10K, A9K, and A10P) released from the periplasmic space whose concentration was determined by a quantitative ELISA. Briefly, antigen and antibody fragment were allowed to react in solution and the fraction of unbound reagent was determined by capture and measured on a bead support. Binding kinetics can be determined or calculated from the amount of unbound reagent. For instance, after interaction between TNF-α and a Fab fragment has occurred in solution, binding of the unreacted, free Fab fragment to TNF-α coated beads can be measured on the instrument by detection with a labeled secondary antibody to the Fab fragment (e.g., a goat anti-IgG (heavy and light)). […] After the incubation, the amount of unbound Fab in the equilibrated samples was determined on the KinExA™3000 instrument according to the manufacturer's instructions. Kd values were determined by the instrument software.
To measure kₒₙ, individual Fab fragments at a concentration of 40 pM were mixed with 400 pM of hTNF-α. […] The resulting data was used to calculate the kₒₙ with the instrument software. koff was calculated by using the formula Kd=koff/kₒₙ.

T1 sequence (P01375 77-233 limits assumed): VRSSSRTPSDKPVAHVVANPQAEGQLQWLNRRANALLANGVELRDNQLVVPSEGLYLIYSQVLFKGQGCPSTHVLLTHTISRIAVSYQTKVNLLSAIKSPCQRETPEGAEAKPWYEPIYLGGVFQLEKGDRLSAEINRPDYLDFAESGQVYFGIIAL

kon (human TNF-α [1]) | Kd (human TNF-α [2]) | L929 cell protection assay, EC50 (human TNF-α [3]) | Kd (human TNF-α [4]) | koff (human TNF-α [5]) | Binder | L929 cell protection assay (prevention of TNF-α-mediated cell death), EC50 (human TNF-α [3])
3.92e+06 M⁻¹ s⁻¹ and 7.51e+06 M⁻¹ s⁻¹ | ≤ 0.0072 nM | ~0.067 nM | ≥ 0.0035 nM | 1.96e-05 s⁻¹ and 3.76e-05 s⁻¹ | A10K Fab fragment (Fab, V domains shown, Fab released from the E. coli periplasm; Against hu1: light chain S31Y, M55R) VH: EVQLVESGGGLVQPGGSLRLSCAASGFKFSNHWMNWVRQAPGKGLEWVGEIRSKSMNSATHYAESVKGRFTISRDDSKNSLYLQMNSLKTEDTAVYYCARNYYGSTYDHWGQGTLVTVSS VL: EIVLTQSPDFQSVTPKEKVTITCRASQFVGYSIHWYQQKPDQSPKLLIKYASESRSGVPSRFSGSGSGTDFTLTINSLEAEDAATYYCQQSHSWHFTFGQGTKVEIK | ~0.025 nM
 |  | ~0.0027 nM |  |  | A10K IgG (antibody, V domains shown) VH: EVQLVESGGGLVQPGGSLRLSCAASGFKFSNHWMNWVRQAPGKGLEWVGEIRSKSMNSATHYAESVKGRFTISRDDSKNSLYLQMNSLKTEDTAVYYCARNYYGSTYDHWGQGTLVTVSS VL: EIVLTQSPDFQSVTPKEKVTITCRASQFVGYSIHWYQQKPDQSPKLLIKYASESRSGVPSRFSGSGSGTDFTLTINSLEAEDAATYYCQQSHSWHFTFGQGTKVEIK | 
